± gives the standard deviation.
Assay: protein stability index of a GFP-peptide fusion (GPS, HEK-293T) (PSI 1-6); higher = more stable
Details: c terminus: a fixed tail appended
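Note: 24-mer peptide tiles fused after GFP, lentivirally expressed, FACS-sorted into six equal bins by GFP/DsRed ratio, decoded by Illumina sequencing, PSI is the read-weighted mean bin number.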

## DQLRSGSPPKSPRTTVHDKSAHQT [DNAJC4]
treatment: DMSO
  protein stability index: 5.26 ± 0.25
treatment: MLN4924 1 uM, 8 h
  protein stability index: 5.4 ± 0.14

## VVYSCVEGKMYTARKGKGAFCNGQ [IMPA1]
treatment: DMSO
  protein stability index: 2.33 ± 0.27
treatment: MLN4924 1 uM, 8 h
  protein stability index: 2.36 ± 0.13

## ESGTKGLFAGFLPRIIKAAPSCAI [SLC25A39]
treatment: DMSO
  protein stability index: 2.24 ± 0.12
treatment: MLN4924 1 uM, 8 h
  protein stability index: 2.47 ± 0.28

## WKKLVLVDRNTRPGPQDPEESASR [ELOA2]
treatment: DMSO
  protein stability index: 4.28 ± 0.16
treatment: MLN4924 1 uM, 8 h
  protein stability index: 4.46 ± 0.11

## ESRAPSPLLHKDSASLEVVKKDHV [CBY2]
treatment: DMSO
  protein stability index: 5.18 ± 0.3
treatment: MLN4924 1 uM, 8 h
  protein stability index: 5.27 ± 0.24

## ARSAASYMLFDPKDSVMQQNLVYY [P3H4]
treatment: DMSO
  protein stability index: 2.28 ± 0.48
treatment: MLN4924 1 uM, 8 h
  protein stability index: 2.08 ± 0.45

## GASDNSIIMWDIGGRKGRTLLLQG [WDFY1]
treatment: DMSO
  protein stability index: 2.15 ± 0.36
treatment: MLN4924 1 uM, 8 h
  protein stability index: 2.19 ± 0.35

## HIIHVWEETGSRFHNCLIQLYCEK [VPS39]
treatment: DMSO
  protein stability index: 2.44 ± 0.4
treatment: MLN4924 1 uM, 8 h
  protein stability index: 2.37 ± 0.36

## SAAAATAELLKKQEELNRKAEELD [SCAMP3]
treatment: DMSO
  protein stability index: 5.72 ± 0.16
treatment: MLN4924 1 uM, 8 h
  protein stability index: 5.52 ± 0.48

## WNMDKYTMIRKLEGHHHDVVACDF [WSB1]
treatment: DMSO
  protein stability index: 2.38 ± 0.19
treatment: MLN4924 1 uM, 8 h
  protein stability index: 2.58 ± 0.33

## GTDVTRCICGFTHDDGYMICCDKC [KMT2E]
treatment: DMSO
  protein stability index: 5 ± 0.2
treatment: MLN4924 1 uM, 8 h
  protein stability index: 5.07 ± 0.12

## TSLTALSLASASPPLSGRSTPKLT [PPFIA4]
treatment: DMSO
  protein stability index: 4.17 ± 0.08
treatment: MLN4924 1 uM, 8 h
  protein stability index: 4.13 ± 0.12

## NVTELLRDVAAWGRARATGGDLEE [DNAAF3]
treatment: DMSO
  protein stability index: 3.63 ± 0.15
treatment: MLN4924 1 uM, 8 h
  protein stability index: 3.75 ± 0.31

## LIILWKNGERESGLRSLRLFQKLE [WDR41]
treatment: DMSO
  protein stability index: 2.15 ± 0.26
treatment: MLN4924 1 uM, 8 h
  protein stability index: 2.5 ± 0.49

## VSRGPGVNVGTTALWKHLKSMHRE [ZBED2]
treatment: DMSO
  protein stability index: 3.22 ± 0.14
treatment: MLN4924 1 uM, 8 h
  protein stability index: 3.3 ± 0.32

## PPMTQAQAVSAPGILNRPPAPTAT [ZNF207]
treatment: DMSO
  protein stability index: 5.01 ± 0.18
treatment: MLN4924 1 uM, 8 h
  protein stability index: 5.09 ± 0.21

## ISFNKTMTQLSSTLARCAKDILGF [PKD2L1]
treatment: DMSO
  protein stability index: 2.96 ± 0.85
treatment: MLN4924 1 uM, 8 h
  protein stability index: 2.62 ± 0.56

## VSEDFNKMNFIKTYPAHQNRVSAI [WDFY1]
treatment: DMSO
  protein stability index: 2.9 ± 0.21
treatment: MLN4924 1 uM, 8 h
  protein stability index: 3.03 ± 0.46

## LRGKFKRPPLRRVRMSADAMLKAL [TNNI2]
treatment: DMSO
  protein stability index: 2.25 ± 0.46
treatment: MLN4924 1 uM, 8 h
  protein stability index: 2.4 ± 0.14

## PQPPDAPQLVSSAREGSSEPWLPL [PLEKHN1]
treatment: DMSO
  protein stability index: 4.36 ± 0.25
treatment: MLN4924 1 uM, 8 h
  protein stability index: 4.56 ± 0.1

## GPDHRLRLWRLFQTLDVNRDGGLC [SLC25A25]
treatment: DMSO
  protein stability index: 2.29 ± 0.11
treatment: MLN4924 1 uM, 8 h
  protein stability index: 2.23 ± 0.22

## LRRRIENGAKELWFFLQSELKKLK [FUT8]
treatment: DMSO
  protein stability index: 2.85 ± 0.43
treatment: MLN4924 1 uM, 8 h
  protein stability index: 2.52 ± 0.4

## KSHLIFPQPNYADTLISQESCEKN [PCDHGA10]
treatment: DMSO
  protein stability index: 4.32 ± 0.17
treatment: MLN4924 1 uM, 8 h
  protein stability index: 4.32 ± 0.21

## YNIATRRKALKNPSEEYGKILEVV [MLH1]
treatment: MLN4924 1 uM, 8 h
  protein stability index: 2.74 ± 0.48

## SNSADDETDDPRRYQKYGYIGTHE [OAS1]
treatment: DMSO
  protein stability index: 4.99 ± 0.11
treatment: MLN4924 1 uM, 8 h
  protein stability index: 4.85 ± 0.16

## SGCLPPEPLFEAGDATLASDLQDW [FOXJ1]
treatment: DMSO
  protein stability index: 4.82 ± 0.36
treatment: MLN4924 1 uM, 8 h
  protein stability index: 4.74 ± 0.18

## AEAEALYSAYIRRCACAASSDESP [TTC32]
treatment: DMSO
  protein stability index: 3.25 ± 0.28
treatment: MLN4924 1 uM, 8 h
  protein stability index: 3.42 ± 0.3

## GGSSAVGQFVSLDGAGKTPTLGGG [BRF1]
treatment: DMSO
  protein stability index: 4.34 ± 0.49
treatment: MLN4924 1 uM, 8 h
  protein stability index: 4.82 ± 0.33

## MTTESGSDSESKPDQEAEPQEAAG [EPB41L3]
treatment: DMSO
  protein stability index: 5.62 ± 0.33
treatment: MLN4924 1 uM, 8 h
  protein stability index: 5.56 ± 0.45

## RFYYSEDDHGDECSYTDLLPQDEG [KCNA4]
treatment: DMSO
  protein stability index: 5.07 ± 0.19
treatment: MLN4924 1 uM, 8 h
  protein stability index: 4.88 ± 0.27

## QVLSAKERHLVEIKQKLGMNLMNE [TPD52L1]
treatment: DMSO
  protein stability index: 3.04 ± 0.12
treatment: MLN4924 1 uM, 8 h
  protein stability index: 3.04 ± 0.13

## KRKREEEEEKEPLAVDSWWLDPGH [SERTAD1]
treatment: DMSO
  protein stability index: 4.64 ± 0.38
treatment: MLN4924 1 uM, 8 h
  protein stability index: 4.79 ± 0.15

## VIATATVYFKRFYARYSLKSIDPV [CCNC]
treatment: DMSO
  protein stability index: 2.8 ± 0.74
treatment: MLN4924 1 uM, 8 h
  protein stability index: 2.8 ± 0.64

## IEDDIRPEKQKRKPGLRRSPIKKV [MYBL2]
treatment: DMSO
  protein stability index: 5.01 ± 0.25
treatment: MLN4924 1 uM, 8 h
  protein stability index: 4.83 ± 0.23

## SLLRRIKGKLFTWNILKTIALGQM [SLC35F2]
treatment: DMSO
  protein stability index: 2.31 ± 0.63
treatment: MLN4924 1 uM, 8 h
  protein stability index: 2.38 ± 0.23

## EIKDVLVWTNDQVVHWVQSIGLRD [PPFIA4]
treatment: MLN4924 1 uM, 8 h
  protein stability index: 2.25 ± 0.37

## TTNPHTSASHRPCVNGDVDKPSEP [SMG5]
treatment: DMSO
  protein stability index: 5.15 ± 0.23
treatment: MLN4924 1 uM, 8 h
  protein stability index: 5.12 ± 0.14

## HPVTIGGKIVGSLCAIAGVLTIAL [KCNA3]
treatment: DMSO
  protein stability index: 2.6 ± 0.42
treatment: MLN4924 1 uM, 8 h
  protein stability index: 2.05 ± 0.28

## LVQDLVDSLKFAVLMWLLTYVGAL [RTN1]
treatment: DMSO
  protein stability index: 2.94 ± 0.2
treatment: MLN4924 1 uM, 8 h
  protein stability index: 2.85 ± 0.26

## YQNELHKFLIWDTAGQERFRALAP [RAB22A]
treatment: DMSO
  protein stability index: 2.29 ± 0.045
treatment: MLN4924 1 uM, 8 h
  protein stability index: 2.46 ± 0.37

## GAARLALLQGAGLDVERWLKPAMT [FCHSD1]
treatment: DMSO
  protein stability index: 2.5 ± 0.53
treatment: MLN4924 1 uM, 8 h
  protein stability index: 2.45 ± 0.36

## KVRALEEANADLEVKIRDWHLKQS [KRT13]
treatment: DMSO
  protein stability index: 4.05 ± 0.2
treatment: MLN4924 1 uM, 8 h
  protein stability index: 4.22 ± 0.13

## SWREAKVSWFGSPTTSFLSISKLS [PWWP2B]
treatment: DMSO
  protein stability index: 2.15 ± 0.46
treatment: MLN4924 1 uM, 8 h
  protein stability index: 2.44 ± 0.43

## RGPPHGWPKLCPCLRSGIGSSQAL [MYCL]
treatment: DMSO
  protein stability index: 2.21 ± 0.65
treatment: MLN4924 1 uM, 8 h
  protein stability index: 2.26 ± 0.5

## QDQGYKTLRLRENCVLSSSPNPFP [ZNF8]
treatment: DMSO
  protein stability index: 3.25 ± 0.11
treatment: MLN4924 1 uM, 8 h
  protein stability index: 3.43 ± 0.22

## SSTLVRPIRSRRALPPLRTRSKSD [FAM189A2]
treatment: DMSO
  protein stability index: 4.65 ± 0.31
treatment: MLN4924 1 uM, 8 h
  protein stability index: 4.6 ± 0.084
